Data taken from PMC3077455.
Like-named read-outs stand apart in the source and are kept apart here.

Columns and labels:
[1] = target: Cse4 150-229 (sedimentation sample) (budding yeast) (UniProt P36012); assay: AUC
[2] = target: Cse4 150-229 (sedimentation sample) (budding yeast) (UniProt P36012); assay: AUC; remark: listed apart in the source
[3] = target: single chain Cse4-H4 (His6-KK-Cse4_(151–207)-LVPRGS-H4_(45–103)) (budding yeast | not stated) (UniProt P36012); assay: ITC

Scm3 84-169, sequence (Q12334 84-169): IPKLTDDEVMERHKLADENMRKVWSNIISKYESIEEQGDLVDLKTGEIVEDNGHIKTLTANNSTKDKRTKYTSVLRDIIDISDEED

stoichiometry N [1] | stoichiometry N [2] | fold reduction of the binding affinity against the wild type [3] [fold] | Substance
1 | 1 | – | Scm3 84-169 (from UniProt Q12334 84-169) (domain or fragment)
– | – | 85 | Scm3 Ile110Asp/Ile117Asn (from UniProt Q12334 83-169) (domain or fragment)
1 | 1 | – | histone H4, full length (from UniProt P02309 1-103) (natural protein)
